Experimental data taken from publication PMC6908968 (Cell, 2019).

T1: thermolysin-cleaved EBOV GP on Jurkat-GP cells (cleaved GP) (Zaire ebolavirus, Makona (GP1 core …, strain))
T1 chain 1: not shown
T1 chain 2: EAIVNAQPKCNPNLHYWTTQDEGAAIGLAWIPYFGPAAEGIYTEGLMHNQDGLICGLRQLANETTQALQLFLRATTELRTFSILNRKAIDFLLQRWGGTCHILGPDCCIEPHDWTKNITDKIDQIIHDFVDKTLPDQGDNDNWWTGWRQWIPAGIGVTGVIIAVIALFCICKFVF

B1: 15.0.c770 (antibody, V domains shown)
VH: QVHLVESGGGVVQPGRSLRLSCAVSGFTFSSCGMHWVRQAPGKGLEWVAVISYDGSDKYYADSVKGRFTISRDNSNNTLYLQMNSLSIEDTAVYYCAKDYYYGSGSDLYYYYYGMDVWGLGTTVTVSS
VL: EIVLTQSPGTLSLSPGDRATLSCRASQSVSSTYLAWYQQKPGQAPRLLIYGASSRATGIPDRFSGSGSGTDFTLTISRLEPEDFAVYYCQQYVTSPYSFGQGTKLEIK
B2: 15.0.c775 (antibody, V domains shown)
VH: EEQLLESGGGLVQPGGSLRLSCAASGFTFSGYDMSWVRQAPGKGLEWVSLLSWSGDAKYYADSVKGRFTISRDNSKNTLYLQMNSLRAEDTAVYYCAGDSSGYNNERLYYTYYMDVWGKGTTVTVSS
VL: DIQMTQSPSSVSASVGDRVTITCRANQAISSWLAWYQQKPGKAPKLLISAASSLQSGVPPRFSGSGSGTDFTLTISSLQPEDFATYYCQQANSFPLTFGGGTKVEIK
B3: 15.0.c888 (antibody, V domains shown)
VH: QVQLVESGGGVVQPGRSLRLSCAASGFTFSSYGMHWVRQAPGKGLEWVAVISYDGSNEYHADSVKGRFTISRDNSKNTLYLQMNSLRPEDTAVYYCAKGARSSSSLDLYYYYYYMDVWGKGTTVTVSS
VL: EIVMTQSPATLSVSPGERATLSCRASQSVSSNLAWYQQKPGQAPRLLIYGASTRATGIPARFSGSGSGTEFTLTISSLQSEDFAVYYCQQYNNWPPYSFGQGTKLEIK
B4: 5.6.c2455 (antibody, V domains shown)
VH: QVQLVESGGGVVQPGRSLRLSCAASGFTFSSYAIHWVRQAPGKGLEWVAVISDDGNHKYYADSVKGRFTISRDNSKNTLFLQMNSLRPEDTAVYYCAKNRLVFGVIWFYDMDVWGQGTTVTVSS
VL: QSVLTQPPSVSAAPGQKVTISCSGSSSNIGNNYVSWYQQLPGSAPKLLIYDNNKRPSGIPDRFSGSKSGTSATLDITGLQTGDEADYYCGTWDTSLRGVFGGGTKLTVL
B5: 5.6.c2460 (antibody, V domains shown)
VH: QLQLQESGPGLVKPSETLSLSCSVSGGSISSSDDHWGWIRQSPGKGLEWIGSVSYSGSVYYNPSLKSRVTISVDTSKTQFSLRLRSVTAADTAVYNCARHRSDQMLFYWFDPWGQGTLVTVSS
VL: ETLMTQSPATLSVTPGESATLSCRASQTISSSLAWFQQKPGQAPRLLIHGASTRATGIPARFSGSGSGTEFTFTISSLQSEDFAVYFCQQYHNWPPTFGQGTKVEIK
B6: 5.6.c2481 (antibody, V domains shown)
VH: QLQLQESGPGLVKPSETLSLTCTVSGGSISSSTYYWGWIRQPPGKGLEWIGSIFYRGITYYNPSLKSRVTISVDTSKNQFSLKLSSVTAADTAVYYCARGGVIVLMVYAIVPPDVWGQGTTVTVSS
VL: QSALTQPASVSGSPGQSITISCTGSRSDVGGYNYVSWYQQHPGKAPKLMISDVSNRPSGVSNRFSGSKSGNTASLTISGLQAEDEADYYCSSYTSSSTVVFGGGTKLTVL
B7: 5.6.c2485 (antibody, V domains shown)
VH: QVTLKESGPVLVKPTETLTLTCTVSGFSLSTARMGVGWIRQPPGKALEWLAHIFSDDEKSYSTSLKSRLTISKDTSKSQVVLTMTNMDPVDTATYYCARIQSSEWIYYYYGMDVWGQGTTVTVSS
VL: DIQMTQSPSSVSASIGDTVTITCRASQDLSYWLAWYQQKPGKAPKLLIYAASSLQSGVPSRFSGSGSGTDFTLTISSLQPEDFATYYCQQAHSFPITFGQGTRLEIK
B8: 5.6.c2517 (antibody, V domains shown)
VH: QVQLQQWGAGLLKPSETLSLSCSVYPGSFSGYYWAWIRQPPGKGLEWIGEINHSGSTKYNPSLKSRVTISIDTSKNQLSLKMSSVTAADSAVYYCASLTRSSWFRAFDYWGQGTLVTVSS
VL: QSALTQPASVSGSPGQSITISCTGSSSDIGGYDYVSWYQQHPGKAPKLMIFDVSDRPSGVSNRFSGSKSGNTASLTISGLQPEDEADYYCSSYTSISSSYVFGTGTKVTVL
B9: 5.6.c2518 (antibody, V domains shown)
VH: EVQLVESGGGVVQPGGSLKLSCAASGFTFDDHAMHWVRQAPGKGPEWVSLISWDGANSYYANSVRGRFTVSRDNSKNSLFLQMNSLRTEDTALYYCARDLHNYAFWSGYPDYWGRGTLVTVSS
VL: DIQLTQFPSSLSASVGDRVVITCRASQSISSSLNWYQQKPGNAPQLLIYTVSSLYTGVPSRFSGSASGTDFTLTISSLRPEDFATYYCQQTHSVPYTFGQGTKLEIK
B10: 5.6.c2526 (antibody, V domains shown)
VH: QVQLVESGGGVVQPGGSLRLACAASGFTFSNSGLHWIRQAPGKGLEWMTVISHDGNNKYYADSVKGRFTISRDNSENMLYLQMNSLRPEDTAVYYCARDRIRYSDWGVYYYYNGMDVWGQGTTVTVSS
VL: QSVLTQPPSVSAAPGQKVTISCSGSISNIGNHYVSWYKQLPGTAPKVLIYDNNKRPSGIPDRFSGSKSGTSATLGLTGLQTGDEADYFCGTWDSSLSVWVFGGGTKLTVL
B11: 5.6.c2569 (antibody, V domains shown)
VH: QVQLQESGPGLVKPSGTLSLTCAVSGGSISSPNWWSWVRQSPEKGLEWIGEVFHSGSTNYNPSLKSRATISVDNSKNQFSLRLTSVTAADTAIYYCARDLGWLVHGYFDPWGQGILVTVSS
VL: EIVLTQSPGTLSLSPGERATLSCRAGQSVSSSYVAWYQQKPGQAPRLLIYDTSSRATGIPDRFSGSGSGTDFTLTISRLEPEDFAVYYCQQYGTSRTWTFGQGTRVEIK
B12: 5.6.c2609 (antibody, V domains shown)
VH: QVQLVESGGGVVQPGRSLRLSCAASGIAFSNYAMHWVRQAPGKGLEWVALISSDARDQYYADSVKGRFTISRDNSKSTLYLEMNSLTSEDTAIYYCASDTSSHYSSLLYNWFDSWGQGSLVTVSS
VL: DIQMTQSPSSLSASVGDRVTITCRAIQSISTFLNWYQHKPGKAPKVLIYGASNLQSGVPSRFSGSGSGTDFTLTISSLQPEDFATYYCQQSYNTPFTFGPGTKVDIK
B13: 5.6.c2627 (antibody, V domains shown)
VH: QVQLVQSGAEVKKPGSSVKVSCKASGGTFSTYGFIWVRQAPGQGLDWMGGIIPIFDKTNYGQRFQGRVTITADKSTSTVHMELSSLRSEDTAVYYCARCRSGFKDPSGYFYYAMDVWGQGTTVTVSS
VL: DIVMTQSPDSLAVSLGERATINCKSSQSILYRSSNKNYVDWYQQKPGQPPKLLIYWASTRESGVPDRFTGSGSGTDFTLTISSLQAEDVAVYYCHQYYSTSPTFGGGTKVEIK
B14: 5.6.c2633 (antibody, V domains shown)
VH: EVQLVQSGGGLVQPGGSLTLSCAASGFTFTDHWIHWVRQAPGKGLEWVANVKPDGSEKYYVDSVKGRFTISRDNAKKSLSLQMNSLRADDTAVYYCARSQLEGLGDLFYYNFGLDVWGQGTTVTVSS
VL: EIVMTQSPATLSVSPGERATLSCRASQSVNSNLAWYQQKPGQAPRLLIYGASTRATGIPARFSGRGSGTDFTLTISSLQSEDFALYYCQQYNTWPPLTFGGGTKVEIN
B15: 5.6.c2636 (antibody, V domains shown)
VH: QVQLVQSGAEVKKPGASVKVSCKASGYTFTDYYMHWVRQAPGQGLEWLGIIIPTGTLSYAQKFQGRVTMTSDTSTNTFYMELRSLRSEDTAVYFCAREKSRDFDWELFDYWGQGTLVTVSS
VL: QSVLTQPPSASGTPGQRITISCSGSSSNIGNNAVSWYQQIPGMAPKLLIYSSNQRPSGVPDRFSGSKSGTSASLAISGLQSEDETDYYCAAWDDSLNGPVFGGGTKVTVL
B16: 5.6.c2644 (antibody, V domains shown)
VH: QVQLVQSGAEVKKPGASVKVSCKASGYTFSNYGITWVRQAPGQGLEWMGWISAYNGNTKYAQKVQGRVTLSTDTSTSTAYMELRSLRSDDTAIYYCARDPGMITPGGVIEHWGQGTLVTVSS
VL: DIQMTQSPSSLSASVGDRVTVTCRASQGISNYLAWYQQKPGKVPKLLIYAASTLHSGVPSRFSGSGSGTDFTLTISSLQPEDVATYVCHNYNNAPRTFGQGTKVEIK
B17: 5.6.c2670 (antibody, V domains shown)
VH: QVQLEQWGAGLLKPSETLSLTCGVNGGSFSGSYWIWIRQSPGKGLEWIGEISHSGSTNSNPSLKSRVTISVDTSKNHFSLTLSSVTAADTAVYYCATSTLDSSSVFYYSYGLDVWGQGTTVTVSS
VL: DIQMTQSPSSVSASVGDRVTITCRASQDISSWLAWYQQKPGRAPNLLIYAASSLLSGVPSRFSGSGSGTDFTLTISSLQPGDSATYYCQQGHSLPLTFGGGTKVEIR
B18: 5.6.c2682 (antibody, V domains shown)
VH: QVQLVESGGGVVQPGRSLRLSCAASGFTFSNYAMHWVRQAPGKGLEWVAVTSDDKDNRYYADSVKGRFIISRDNSKNTLYLQMNSLRAEDTAVYHCAKDFEVFSSIFNGAYDSWGQGTLVIVSS
VL: EVVMTQSPATLSVSPGERATLSCRASQSVGFNLAWYQQKPGQAPRLLIYDASTRATGIPARFSGSGSGTEFTLTISSLQSGDFAVYYCQQYNNWPPYTFGQGTKLEIK
B19: 5.6.c2685 (antibody, V domains shown)
VH: EVQLVESGGGLVQPGGSLRLSCAASGFTFSRSWMNWVRQAPGKGLEWVANIKQDGSEKYYVDSVKGRFTISRDNAKNSLYLQMNSLRAEDTGVYYCAKATVTTELTFFYYYALDVWGQGTTVTVSS
VL: EIVMTQSPATLSVSPGERATLSCRASQSINNNLAWYQQKPGQAPRLLISDASTRATGVPARFSGSGSGTEFTLTISSLQSEDSAVYHCQQYNTWPPFTFGGGTKVEIK
B20: 5.6.c3955 (antibody, V domains shown)
VH: EVQLVESGGGLVQPGGSLRLSCAASGFTFSTYSMNWLRQAPGKGLEWISFISIRSTTTYYADSVKGRFTISRDDAKNSLYLQMNSLRDEDTAVYYCARVYMRTFYFDNWGQGTLVTVSS
VL: QSALTQPASVSGSPGQSITISCTGTSSDVGDYNYVSWYQQHPGKAPKLLIFDVSNRPSGVSNRFSGSKSGNTASLTISGLQAEDEADYYCSSYASSRTSWVFGGGTKLTVL

Target: T1, thermolysin-cleaved EBOV GP on …

Row | Binder | binding result
1 | B1 | binds
2 | B2 | binds
3 | B3 | binds
4 | B4 | binds
5 | B5 | binds
6 | B6 | binds
7 | B7 | binds
8 | B8 | binds
9 | B9 | binds
10 | B10 | binds
11 | B11 | binds
12 | B12 | binds
13 | B13 | binds
14 | B14 | binds
15 | B15 | binds
16 | B16 | binds
17 | B17 | binds
18 | B18 | binds
19 | B19 | binds

target: EBOV GP ectodomain residues 1-636 (GPec) (Zaire ebolavirus, strain  …, UniProt Q05320)

Row | Binder | binding result
20 | B1 | binds
21 | B2 | binds
22 | B3 | binds
23 | B4 | binds
24 | B5 | binds
25 | B6 | binds
26 | B7 | binds
27 | B8 | binds
28 | B9 | binds
29 | B10 | binds
30 | B11 | binds
31 | B12 | binds
32 | B13 | binds
33 | B14 | binds
34 | B15 | binds
35 | B16 | binds
36 | B17 | binds
37 | B18 | binds
38 | B19 | binds
39 | B20 | binds
